Source: publication PMC4479312

Target: integrin α4β7 (human α4 and β7 subunits co-expressed on 293T cells) (human) (UniProt P13612)
Sequence of UniProt P13612 (P13612 34-1032, chain 1 of 2): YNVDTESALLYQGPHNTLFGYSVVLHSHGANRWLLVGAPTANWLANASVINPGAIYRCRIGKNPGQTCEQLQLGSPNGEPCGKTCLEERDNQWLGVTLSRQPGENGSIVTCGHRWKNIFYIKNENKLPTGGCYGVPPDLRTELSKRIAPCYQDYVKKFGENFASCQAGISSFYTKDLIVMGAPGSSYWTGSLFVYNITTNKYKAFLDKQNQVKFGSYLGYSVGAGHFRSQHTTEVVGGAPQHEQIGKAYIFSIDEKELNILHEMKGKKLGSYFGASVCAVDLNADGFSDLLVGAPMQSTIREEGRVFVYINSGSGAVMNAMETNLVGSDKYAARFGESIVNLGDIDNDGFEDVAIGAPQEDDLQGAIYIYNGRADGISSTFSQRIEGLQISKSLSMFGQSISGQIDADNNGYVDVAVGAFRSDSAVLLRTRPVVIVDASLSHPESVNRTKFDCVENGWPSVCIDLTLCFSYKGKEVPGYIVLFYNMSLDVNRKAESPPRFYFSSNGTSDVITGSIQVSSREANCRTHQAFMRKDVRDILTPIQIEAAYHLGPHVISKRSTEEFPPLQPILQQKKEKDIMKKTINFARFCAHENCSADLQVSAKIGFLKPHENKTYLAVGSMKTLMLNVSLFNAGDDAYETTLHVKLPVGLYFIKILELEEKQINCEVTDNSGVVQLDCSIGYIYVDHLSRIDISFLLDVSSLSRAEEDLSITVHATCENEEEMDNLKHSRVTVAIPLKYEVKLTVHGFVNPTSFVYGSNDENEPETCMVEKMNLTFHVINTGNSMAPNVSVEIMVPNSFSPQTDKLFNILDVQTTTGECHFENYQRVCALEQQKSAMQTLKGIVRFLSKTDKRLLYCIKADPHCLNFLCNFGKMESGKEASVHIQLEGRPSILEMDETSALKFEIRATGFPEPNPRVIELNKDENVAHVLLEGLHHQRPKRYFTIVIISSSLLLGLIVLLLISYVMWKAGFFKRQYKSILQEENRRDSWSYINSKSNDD
Sequence of UniProt P13612 (P26010 20-798, chain 2 of 2, further chain): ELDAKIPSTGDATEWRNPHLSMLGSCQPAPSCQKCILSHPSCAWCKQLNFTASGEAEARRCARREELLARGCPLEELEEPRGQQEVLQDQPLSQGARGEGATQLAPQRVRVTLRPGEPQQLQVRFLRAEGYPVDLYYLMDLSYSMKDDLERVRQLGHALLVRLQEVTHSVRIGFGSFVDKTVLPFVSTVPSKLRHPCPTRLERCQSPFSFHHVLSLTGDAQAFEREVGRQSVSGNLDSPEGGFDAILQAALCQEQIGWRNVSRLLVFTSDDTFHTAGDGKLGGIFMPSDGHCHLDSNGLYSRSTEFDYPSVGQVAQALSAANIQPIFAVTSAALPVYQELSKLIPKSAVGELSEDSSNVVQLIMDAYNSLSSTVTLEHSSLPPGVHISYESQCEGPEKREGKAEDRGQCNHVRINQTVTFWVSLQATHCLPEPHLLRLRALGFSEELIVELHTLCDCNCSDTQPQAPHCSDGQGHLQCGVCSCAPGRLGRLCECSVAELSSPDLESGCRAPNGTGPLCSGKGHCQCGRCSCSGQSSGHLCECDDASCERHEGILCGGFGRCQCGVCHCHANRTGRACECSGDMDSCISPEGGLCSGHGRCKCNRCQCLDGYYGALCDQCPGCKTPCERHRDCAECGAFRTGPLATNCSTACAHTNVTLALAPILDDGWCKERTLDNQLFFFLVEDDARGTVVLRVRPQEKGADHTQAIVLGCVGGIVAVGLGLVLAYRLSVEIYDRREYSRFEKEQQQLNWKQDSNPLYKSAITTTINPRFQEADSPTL

Substance | α4β7 dependence for replication (Act-1 mAb inhibition of p24 in ATRA-treated CD4+ T cells) [%]
HIV-1 subtype C CAP206 transmitted/founder (T/F) envelope glycoprotein on infectious envelope clone virus (natural protein) | > 50
HIV-1 subtype C CAP200 transmitted/founder (T/F) envelope glycoprotein (SDV motif) on infectious envelope clone virus (natural protein) | > 50
HIV-1 subtype C CAP88 transmitted/founder (T/F) envelope glycoprotein on infectious envelope clone virus (natural protein) | > 50
HIV-1 subtype C CAP225 transmitted/founder (T/F) envelope glycoprotein (SDI motif) on infectious envelope clone virus (natural protein) | > 50
